Square brackets hold non-standard residues; d marks the D form. Side chains are listed from the residue outwards. Ends that are not written are not given here. maleimide = maleimide: 4-arm PEG5k maleimide reacting with the C-terminal Cys thiol
What was measured:
[1] = molecular target: hERG potassium channel (Homo sapiens, UniProt Q12809); assay: Whole-cell patch clamp recording of hERG current; format: cell-based; conditions: cisapride as positive control
Procedure: In addition, some common adverse effects suffered by frequently used medications were also evaluated. The whole‐cell patch clamp recording technique was used to record the whole‐cell hERG‐potassium to measure the cardiac toxicity of peptidomimetic agents on hERG potassium channel by utilizing cisapride as positive control (Figure 6E; Figure S10, Supporting Information). […] Meanwhile, the blood biochemical indexes of ligand‐treated mice sacrificed on day 2 or day 15 were tested to examine the influences of peptidomimetic agents to liver and kidney (Figure S11, Supporting Information).

[2] = molecular target: T1, DR6/APP interaction (B16F10, SGC-996, LLC1 TCs on DR6 protein coated plates) (Homo sapiens, UniProt O75509); assay: Cell attachment of TCs to DR6-coated plates; format: cell-based; conditions: 1 h at 37 °C, crystal violet, microplate reader, n = 3
T1 construct: His tag (inferred from RED-tris-NTA labelling of the same purchased protein in the MST assay); purchased Sino Biology, Inc. (Shanghai, China); host or cells: DR6 coated on 96-well plates; tumour cells B16F10, SGC-996, LLC1 carry endogenous APP
T1 sequence (O75509 42-349 limits assumed): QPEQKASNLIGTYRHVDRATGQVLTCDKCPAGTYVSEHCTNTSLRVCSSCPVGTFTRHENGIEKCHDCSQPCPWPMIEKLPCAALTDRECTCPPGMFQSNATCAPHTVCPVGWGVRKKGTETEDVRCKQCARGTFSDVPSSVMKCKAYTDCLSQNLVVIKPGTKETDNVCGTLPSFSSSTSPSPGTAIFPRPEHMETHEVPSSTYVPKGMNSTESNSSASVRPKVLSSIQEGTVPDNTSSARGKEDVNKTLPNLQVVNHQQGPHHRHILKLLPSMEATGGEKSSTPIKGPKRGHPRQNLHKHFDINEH
Procedure: DR6 protein in 50 µL PBS (50 × 10^–9 M) was added into 96‐well plates. The 96‐well plates were incubated for 2 h at 37 °C, followed by drying overnight at 4 °C. Next day, the 96‐well plates were warmly washed three times with PBS, and then blocked by PBS containing 1% BSA for 1 h at 37 °C. The plates were washed three times with PBS. TCs were suspended in serum‐free DMEM at a density of 3 × 10^5 cells mL^–1; 50 µL of the cell suspension was added to wells coated with the DR6‐targeting peptides. Different concentrations of DR6‐targeting peptides or PBS were added into the plates. After incubation at 37 °C for 1 h, non‐adherent cells were gently washed away with PBS, fixed with 4% paraformaldehyde at room temperature for 30 min, washed, stained with 5% crystal violet 50 µL per well for 10 min, gently washed with PBS, and decolorized with 33% acetic acid. The attachment cell number was measured by a microplate reader.^[ ^53 ^]

[3] = molecular target: T2, DR6 protein (Homo sapiens, UniProt O75509); assay: KD of DR6-targeting peptides for binding to DR6 protein by MST
T2 construct: purchased Sino Biology, Inc. (Shanghai, China)
T2 sequence (O75509 42-655): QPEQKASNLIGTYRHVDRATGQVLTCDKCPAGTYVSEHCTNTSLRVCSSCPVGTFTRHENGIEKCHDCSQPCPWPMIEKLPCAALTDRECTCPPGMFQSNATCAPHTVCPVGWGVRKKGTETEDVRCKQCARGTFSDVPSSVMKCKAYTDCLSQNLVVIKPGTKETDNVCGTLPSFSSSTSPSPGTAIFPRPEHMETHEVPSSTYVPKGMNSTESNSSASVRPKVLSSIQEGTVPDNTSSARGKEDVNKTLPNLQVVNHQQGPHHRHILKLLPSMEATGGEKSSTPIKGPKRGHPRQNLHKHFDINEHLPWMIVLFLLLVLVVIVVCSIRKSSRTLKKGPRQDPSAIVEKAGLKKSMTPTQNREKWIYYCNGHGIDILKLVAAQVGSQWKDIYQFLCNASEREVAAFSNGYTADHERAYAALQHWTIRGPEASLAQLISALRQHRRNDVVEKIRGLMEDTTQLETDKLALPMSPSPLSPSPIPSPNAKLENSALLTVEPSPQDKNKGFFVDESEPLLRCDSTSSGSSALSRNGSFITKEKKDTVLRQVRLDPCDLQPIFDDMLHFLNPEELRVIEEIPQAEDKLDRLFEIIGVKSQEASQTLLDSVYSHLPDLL
Procedure: For labeling DR6 protein with Red‐tris‐NTA second‐generation dye, equal volume of DR6 protein (200 × 10^–9 M) and dye (100 × 10^–9 M) were mixed. The solution was incubated for 30 min at room temperature and centrifuged for 10 min at 4 ℃ and 15 000 × g. The DR6 protein was labeled and ready for the binding assay. Prepare 25 µL of the DR6‐targeting peptides at 20 × 10^–6 M and add 10 µL of the PBS‐T into the PCR tubes 2–12. Transfer 20 µL DR6‐targeting peptides into the PCR tube 1 and then transfer 10 µL of the DR6‐targeting peptides from tube 1 to tube 2 with a pipette and mix by pipetting up and down multiple times. Transfer 10 µL to tube 3 and mix. Repeat the procedure for tube 4–12. Add 10 µL of labeled protein to each tube (1–12) and mix by pipetting. The final DR6 protein concentration was 50× 10^−9 M. Load the capillaries and measure the samples by NanoTemper Monolith NT.015.^[ ^51 , ^52 ^]

[4] = DLS analysis of size in solution; format: physicochemical
Procedure: AHP‐DRI‐12 with additional Cys residue at the C‐terminal and 4‐arm PEG5k maleimide was dissolved in PBS (0.1 M, pH = 8) at a molar ratio of 8:1. The reaction mixture was stirred for 4 h at room temperature and then dialyzed in a Slide‐A‐Lyzer dialysis cassette (Thermo Fisher Scientific, Shanghai, China) (MWCO: 3500 Da) against water. The dialysate containing the pure product was lyophilized. The products were confirmed by nuclear magnetic resonance (^1H NMR) spectra using a Bruker Avance 500 (500 MHz) spectrometer (Beijing, China).

[5] = tested on: B16F10, 4T1, and CT26 lung metastasis models; assay: In vivo anti-metastasis assay, lung metastasis models; design: species or system mice
Procedure: 2 × 10^5 GFP‐B16F10 cells, 2 × 10^5 4T1, or 2 × 10^5 CT26 in 100 µL PBS were injected to the lateral tail vein of mice, respectively. The mice were intravenously injected with saline, AHP‐DRI‐12, and PEG‐tAHP‐DRI (0.2 µg g^–1 AHP‐DRI‐12) shortly before and 24 h after injection of B16F10. Each formulation was administered every 2 days for a total of seven times. After 15 days, mice were sacrificed and perfused with PBS and 4% paraformaldehyde. The hearts, livers, spleens, lungs, and kidneys were collected for H&E staining and immunohistochemistry analysis. Lung metastases were analyzed by quantitation of GFP and metastases nodes.

[6] = B16F10 tumor-bearing mice, 15 days

Sequence of hERG potassium channel (Q12809 whole entry): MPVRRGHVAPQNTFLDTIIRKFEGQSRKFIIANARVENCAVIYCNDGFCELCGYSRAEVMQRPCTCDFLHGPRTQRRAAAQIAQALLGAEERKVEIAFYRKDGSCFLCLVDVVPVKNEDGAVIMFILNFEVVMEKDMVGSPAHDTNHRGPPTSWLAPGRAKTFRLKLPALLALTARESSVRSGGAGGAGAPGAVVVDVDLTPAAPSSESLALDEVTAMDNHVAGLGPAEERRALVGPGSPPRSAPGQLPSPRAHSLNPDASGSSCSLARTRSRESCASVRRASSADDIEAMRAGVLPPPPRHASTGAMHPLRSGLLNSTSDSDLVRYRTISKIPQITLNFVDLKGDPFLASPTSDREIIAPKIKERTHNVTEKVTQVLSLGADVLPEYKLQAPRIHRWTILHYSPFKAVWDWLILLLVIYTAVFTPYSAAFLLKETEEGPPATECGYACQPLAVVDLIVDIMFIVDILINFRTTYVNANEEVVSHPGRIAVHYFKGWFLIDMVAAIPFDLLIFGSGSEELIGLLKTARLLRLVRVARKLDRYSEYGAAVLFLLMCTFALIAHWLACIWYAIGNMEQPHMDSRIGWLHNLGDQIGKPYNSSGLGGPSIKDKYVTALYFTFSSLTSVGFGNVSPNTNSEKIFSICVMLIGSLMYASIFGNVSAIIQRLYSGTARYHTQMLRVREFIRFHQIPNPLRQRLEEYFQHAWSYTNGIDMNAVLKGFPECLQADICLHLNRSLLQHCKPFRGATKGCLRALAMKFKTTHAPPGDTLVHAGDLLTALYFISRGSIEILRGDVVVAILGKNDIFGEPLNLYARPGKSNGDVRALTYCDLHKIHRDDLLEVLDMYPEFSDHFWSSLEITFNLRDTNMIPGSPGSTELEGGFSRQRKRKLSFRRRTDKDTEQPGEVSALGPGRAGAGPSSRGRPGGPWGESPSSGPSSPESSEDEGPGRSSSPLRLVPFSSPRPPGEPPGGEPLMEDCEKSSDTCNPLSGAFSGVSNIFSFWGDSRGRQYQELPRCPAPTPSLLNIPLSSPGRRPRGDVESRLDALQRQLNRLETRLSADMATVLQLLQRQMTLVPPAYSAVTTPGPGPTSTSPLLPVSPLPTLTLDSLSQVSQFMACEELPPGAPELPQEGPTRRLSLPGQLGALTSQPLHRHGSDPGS

disruption of attachment between TCs and DR6-coated plates [2]: most obvious disruption of attachment
Kd ([3]; RED-tris-NTA labeled DR6 protein, final 50 × 10^−9 M, PBS-T, main text and Figure 2B-D, read-out: KD): ~50 nM
binding affinity to DR6 relative to AHP-DRI-12 ([3]; from KD values): almost fourfold greater binding affinity
Substance: PEG-tAHP-DRI: tetra-(D-retro-inverso isomer of AHP-12) substitued 4-arm PEG5k ([dP][dT][dT][dA][dD][dI][dT]C([maleimide-4‑arm PEG5k]); also: four peptides on one 4-arm PEG5k)
inhibitory effect on hERG channels [1]: no significant inhibitory effect
size distribution in solution (hydration dynamic radius, DLS) [4]: ≈ 10 nm
necroptosis in lungs, p-RIPK1 immunohistochemical analysis [5, 6]: dramatic decrease of necroptosis in lungs
pulmonary vessel integrity, CD31 staining [5, 6]: remained relatively intact and orderly
expression level of GFP mRNA in lungs ([5]; GFP-B16F10 model, compared with vehicle-treated and AHP-DRI-12-treated mice, n = 6): less expression level of GFP mRNA in lungs
pulmonary metastasis nodules ([5]; intravenous, 0.2 µg g^–1 AHP-DRI-12, every 2 days, seven times, lungs after 15 days): least amount of pulmonary metastasis nodules
metastatic loci in lungs, H&E staining ([5]; intravenous, 0.2 µg g^–1 AHP-DRI-12, 15 days, n = 6): less and smaller metastatic loci

Reference: paper PMC8188212, “Multi‐Arm PEG/Peptidomimetic Conjugate Inhibitors of DR6/APP Interaction Block Hematogenous Tumor Cell Extravasation” (Advanced Science, 2021)
